Patent US11896644B2, “Inhibition of beta-arrestin oligomerization in tauopathy” (UNIVERSITY OF SOUTH FLORIDA, priority 2020, dated 2024)

Tests used:
[1] = system: tauopathy in tau P301S mice; assay: rAAV9 stereotaxic injection into hippocampus of 5-month old tau P301S mice; assay type: in vivo
Method: Cells were fixed with 4% paraformaldehyde for 15 min at room temperature and washed with 0.2% triton in TBS and blocked using 3% BSA with 0.1% triton x-100 for 1 hr, incubated with primary antibodies for overnight at 4° C. and fluorescently labeled secondary antibodies for 45 min at room temperature. For immunohistochemistry, mice were perfused with PBS and fixed with 4% paraformaldehyde. 25-micron sections were blocked using normal goat serum for 1 h and incubated with primary antibodies at 4° C. overnight, followed by secondary antibody incubation for 1 h at room temperature prior to mounting. Images were captured with the Olympus FV10i confocal microscope (Tokyo, Japan), and the immunoreactivities were quantified using the Image J software (National Institutes of Health, Bethesda, MD). Immunoreactivities were quantitated from every 12th serial section through an entire hippocampus. In ICC and IHC experiments, all comparison images were acquired with identical laser intensity, exposure time, and filter. Adjustments to the brightness/contrast were applied equally to all comparison images. Regions of interest were chosen randomly, and investigators were blinded to experimental conditions during image acquisition and quantification.
Brain homogenates and cultured cells were lysed with RIPA buffer (50 mM Tris pH 7.4, 150 mM NaCl, 2 mM ethlenediaminetetraacetic acid, 1% NP-40, 0.1% sodium dodecyl sulfate) plus protease and phosphatase inhibitors. Proteins were extracted and centrifuged at 15000 rpm for 15 min at 4° C., and RIPA insoluble fractions were lysed with 5% SDS with 1% β-mercaptoethanol, 50 mM Tris-HCl pH 6.8, 12.5 mM EDTA, 10% glycerol, and 0.02% bromophenol blue. Supernatants were used for western blot analysis. supernatants were used for western blot analysis. co-IP experiments were carried out from NP40 lysates or indicated buffers with preclearing with IgG beads followed by IP with IgG beads alone or IgG beads+indicated antibodies, extensive washing (5×) with the original buffer, and Western blotting on SDS-PAGE. […]

GFP-p62 puncta = GFP-p62 puncta in Hela-V5-tau cells with/without bafilomycin A; assay type: cell-based; conditions: steady-state
Method: (§1) Data are shown as box plots or mean±SEM.
(§2) Given the effects on p62 autophagy flux, whether β-arrestin2 physically interacts with p62 was tested. […] Given that β-arrestin2 oligomeric mutants, ΔIP6C and ΔIP6N, reduced tau aggregates by slowing tau turnover, next tested was whether β-arrestin2 ΔIP6C and ΔIP6N mutants affect p62 self-association by a proximity ligation assays (PLA) as well as co-IP. […] Recent studies have shown that purified recombinant p62 spontaneously forms globular oligomers (Zaffagnini G, et al. (2018) EMBO J 37(5)). To test whether β-arrestin2 can directly affect p62 oligomerization in vitro, purified recombinant p62, β-arrestin2, and p62 mixed with β-arrestin2 with atomic force microscopy were visualized. Recombinant p62 spontaneously formed visible globular particles between 5-100 nm in diameter (FIG. 5K), whereas only very few small β-arrestin2 particles were visible under identical conditions (FIG. 5K). […] Next tested was whether β-arrestin2 oligomerization is required for bafilomycin A-induced p62 puncta formation. As expected, GFP-p62 puncta were increased upon bafilomycin A treatment in control vector transfected cells (FIGS. 5M,5N).

HA-p62/GFP-p62 complex = target: T1, HA-p62/GFP-p62 complex (Homo sapiens, UniProt Q13501); assay: PLA of HA-p62/GFP-p62 complex (p62 self-interaction); assay type: cell-based; conditions: Hela-V5-tau cells
T1 construct: #38277; host or cells: Hela-V5-tau cells
Method: as §1, §2

activated GPCRs = conditions: cited from earlier work
[2] = target: T2, βarrestin1/βarrestin2 hetero-oligomers (UniProt P29067+P49407); assay: PLA for βarrestin1/βarrestin2 hetero-oligomers in HeLa-V5-tau cells; assay type: cell-based
T2 construct: expressed in transfected cells; host or cells: HeLa-V5-tau cells
T2 sequence (P49407 whole entry): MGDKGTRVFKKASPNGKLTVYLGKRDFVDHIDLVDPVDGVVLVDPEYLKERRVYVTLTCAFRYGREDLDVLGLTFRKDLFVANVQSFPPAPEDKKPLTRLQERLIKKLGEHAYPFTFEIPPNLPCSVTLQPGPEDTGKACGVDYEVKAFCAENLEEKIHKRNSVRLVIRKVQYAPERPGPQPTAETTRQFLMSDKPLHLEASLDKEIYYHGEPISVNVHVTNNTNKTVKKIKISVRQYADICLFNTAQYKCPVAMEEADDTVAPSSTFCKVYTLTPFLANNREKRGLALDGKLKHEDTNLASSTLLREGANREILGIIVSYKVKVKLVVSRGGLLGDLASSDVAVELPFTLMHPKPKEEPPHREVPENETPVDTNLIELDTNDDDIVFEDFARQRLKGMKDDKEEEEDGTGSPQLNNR
T2 sequence (P29067 whole entry): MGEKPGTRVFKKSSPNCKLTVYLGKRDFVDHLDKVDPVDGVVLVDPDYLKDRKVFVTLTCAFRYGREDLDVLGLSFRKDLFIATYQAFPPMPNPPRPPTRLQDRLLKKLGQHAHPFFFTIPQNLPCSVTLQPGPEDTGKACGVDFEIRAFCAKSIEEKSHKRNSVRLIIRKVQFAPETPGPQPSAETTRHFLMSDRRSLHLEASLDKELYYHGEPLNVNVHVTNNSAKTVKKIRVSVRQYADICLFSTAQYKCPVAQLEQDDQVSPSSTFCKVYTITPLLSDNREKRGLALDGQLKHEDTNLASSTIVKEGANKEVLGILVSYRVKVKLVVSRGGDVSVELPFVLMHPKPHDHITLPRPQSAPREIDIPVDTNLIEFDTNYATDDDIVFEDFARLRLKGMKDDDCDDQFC
Excerpt: FIGS. 24A to 24D show β-arrestin2 oligomerization mutants impair β-arrestin1 homo-oligomers and β-arrestin1/β-arrestin2 hetero-oligomers. HeLa-V5-tau cells were co-transfected with vector control or β-arrestin2 oligomerization mutants (ΔIP6C or ΔIP6N) together with βarrestin1-GFP+βarrestin1-myc or βarrestin2-myc. Cells were then subjected to proximity ligation assay (PLA) using antibodies against GFP and mycto detect βarrestin1 homo-oligomers (FIGS. 24A,24B) and βarrestin1/βarrestin2 hetero-oligomers and DAPI staining (FIGS. 24C,24D) (puncta).

B1: β-arrestin2 ΔIP6N: β-arrestin2 N-terminal domain mutant (K158A, K161A, and R162A), incapable of forming oligomers; dominant negative (protein, UniProt P32121 1-409, looked up, variant K158A K161A R162A)
Beta-arrestin-2: MGEKPGTRVFKKSSPNCKLTVYLGKRDFVDHLDKVDPVDGVVLVDPDYLKDRKVFVTLTCAFRYGREDLDVLGLSFRKDLFIATYQAFPPVPNPPRPPTRLQDRLLRKLGQHAHPFFFTIPQNLPCSVTLQPGPEDTGKACGVDFEIRAFCAKSLEEASHAANSVRLVIRKVQFAPEKPGPQPSAETTRHFLMSDRSLHLEASLDKELYYHGEPLNVNVHVTNNSTKTVKKIKVSVRQYADICLFSTAQYKCPVAQLEQDDQVSPSSTFCKVYTITPLLSDNREKRGLALDGKLKHEDTNLASSTIVKEGANKEVLGILVSYRVKVKLVVSRGGDVSVELPFVLMHPKPHDHIPLPRPQSAAPETDVPVDTNLIEFDTNYATDDDIVFEDFARLRLKGMKDDDYDDQLC
modifications: GFP or YFP tag
notes: dominant negative
Question: What does the source list for B1?
Answer: tau levels in individual brain cells with verified expression ([1]; cells verified by GFP tags): essentially undetectable; HT7-immunoreactive tau ([1]; expressing neurons vs GFP-expressing control or non-infected neurons): significant reductions; sarkosyl-insoluble tau ([1]; tau P301S mice, two months post injection, vs GFP control): markedly reduced; GFP-p62 puncta (GFP-p62 puncta): increased GFP-p62 puncta at steady-state; HA-p62/GFP-p62 PLA puncta (p62 self-interaction) (HA-p62/GFP-p62 complex): neither β-arrestin2 ΔIP6C nor β-arrestin2 ΔIP6N reduced HA-p62/GFP-p62 PLA puncta; binding to activated GPCRs (activated GPCRs): bind to activated GPCRs with WT affinity; βarrestin1/βarrestin2 hetero-oligomers (PLA puncta) [2]: significantly reduce
